# Measurements published in the supplement of paper PMC7125110.
# ± gives the standard error. For part of these data: This sample holds only a part of the variants without activity.
# B1: glmS ribozyme (parent)
# chain: AUAAAAGCGCCAGAACUACAGAAAUGUAGUUGACGAGGAGGAGGUUUAUCGAAUUUUCGGCGGAUGCCUCCAAA
# Tests used:
# Conditions in all cases: with glucosamine-6-phosphate
# [1] = variants of: B1; test: kcat; higher = faster cleavage; RNA array
# Method in brief: (§1)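 Tracking of barcoded ribozyme variants used a hybridised Cy3 probe at 37 °C, after in situ transcription by E. coli RNA polymerase on sequenced MiSeq chips. The flowed solution held 40 μM to 10 mM glucosamine-6-phosphate in HEPES/KCl/Mg(OAc)2 buffer, and imaging ran over ~14 h. kobs was taken from exponential decay fits of normalised per-tile medians, and kcat and KM from weighted Michaelis–Menten fits.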
# [2] = variants of: B1; test: KM; higher = weaker cofactor use; RNA array
# Method in brief: as §1
# [3] = variants of: B1; test: self-cleavage kobs at 40 uM GlcN6P; higher = faster cleavage; RNA array
# Method in brief: as §1
# [4] = variants of: B1; test: self-cleavage kobs at 160 uM GlcN6P; higher = faster cleavage; RNA array
# Method in brief: as §1
# [5] = variants of: B1; test: self-cleavage kobs at 640 uM GlcN6P; higher = faster cleavage; RNA array
# Method in brief: as §1
# [6] = variants of: B1; test: self-cleavage kobs at 2500 uM GlcN6P; higher = faster cleavage; RNA array
# Method in brief: as §1
# [7] = variants of: B1; test: self-cleavage kobs at 10000 uM GlcN6P; higher = faster cleavage; RNA array
# Method in brief: as §1
Variant,kcat [1] [s⁻¹],KM [2] [µM],self-cleavage kobs at 40 uM GlcN6P [3] [s⁻¹],self-cleavage kobs at 160 uM GlcN6P [4] [s⁻¹],self-cleavage kobs at 640 uM GlcN6P [5] [s⁻¹],self-cleavage kobs at 2500 uM GlcN6P [6] [s⁻¹],self-cleavage kobs at 10000 uM GlcN6P [7] [s⁻¹]
A12C C67U,0.00763 ± 0.0029,2210 ± 1000,0.000156 ± 1.3e-05,0.000508 ± 5.5e-05,0.00137 ± 0.0002,0.00322 ± 0.00048,0.00923 ± 0.0012
A53C C67A,0.000935 ± 0.0003,1500 ± 750,,7.58e-05 ± 1.6e-05,0.000414 ± 6.3e-05,0.000435 ± 0.00011,0.000889 ± 0.00017
G40C G41A,0.000118 ± 1.4e-05,667 ± 260,,,5.69e-05 ± 8.6e-06,0.000104 ± 1.1e-05,0.000101 ± 1.3e-05
A48U C68U,7.9e-05 ± 4.9e-06,435 ± 140,,,4.57e-05 ± 6.9e-06,7.48e-05 ± 7.7e-06,7.25e-05 ± 6.1e-06
A39C U65G,0.00143 ± 8.9e-05,3200 ± 380,,7.31e-05 ± 2e-05,0.000243 ± 3.9e-05,0.000558 ± 9.7e-05,0.0011 ± 9.8e-05
C50G U56G,4.44e-05 ± 8.9e-06,,,4.35e-05 ± 1.5e-05,,5.17e-05 ± 2.1e-05,
A15U U31C,0.00128 ± 0.0001,2710 ± 340,1.67e-05 ± 5.8e-06,7.32e-05 ± 7.2e-06,0.000233 ± 1.9e-05,0.000703 ± 6.9e-05,0.000981 ± 7.1e-05
A6C A14U,1.09e-05 ± 1.1e-06,,,,,,
U31A A53G,0.0153 ± 0.0017,1860 ± 270,0.00035 ± 4.3e-05,0.00107 ± 0.00018,0.0038 ± 0.00071,0.0096 ± 0.0019,0.0127 ± 0.002
G29C U55A,0.00298 ± 0.00096,3270 ± 1400,4.44e-05 ± 1.1e-05,0.000171 ± 3e-05,0.000406 ± 6.1e-05,0.00139 ± 0.00019,0.00222 ± 0.00061
G66A C68A,0.000285 ± 7.9e-05,,,,0.000138 ± 2.7e-05,0.000313 ± 5.4e-05,0.000216 ± 4.2e-05
G7A U55A,8.93e-05 ± 9.4e-06,,,,,,
C10U U54C,2.54e-05 ± 7.7e-06,,< 1e-05,,,3.09e-05 ± 1.2e-05,
U54G A64C,0.000177 ± 1.8e-05,2030 ± 590,< 1e-05,,3.56e-05 ± 1.3e-05,0.000116 ± 2.4e-05,0.000143 ± 1.8e-05
U45C C70G,0.00245 ± 0.00063,,,3.27e-05 ± 1.6e-05,8.88e-05 ± 3.7e-05,0.000381 ± 7.3e-05,0.001 ± 0.00025
U46A C68U,0.00114 ± 0.00016,2350 ± 540,3.61e-05 ± 1.2e-05,6.77e-05 ± 1.1e-05,0.000233 ± 3.5e-05,0.000743 ± 0.00014,0.0009 ± 8.7e-05

Variant,kcat [1] [s⁻¹],KM [2] [µM],self-cleavage kobs at 40 uM GlcN6P [3] [s⁻¹],self-cleavage kobs at 160 uM GlcN6P [4] [s⁻¹],self-cleavage kobs at 640 uM GlcN6P [5] [s⁻¹],self-cleavage kobs at 2500 uM GlcN6P [6] [s⁻¹],self-cleavage kobs at 10000 uM GlcN6P [7] [s⁻¹]
U30G G38U,< 1e-05,87.6 ± 41,,,,,
A53C U55A,0.00829 ± 0.0024,2150 ± 840,0.000204 ± 1.9e-05,0.000453 ± 6.9e-05,0.00172 ± 0.00021,0.00411 ± 0.00049,0.00772 ± 0.00094
A15G U30C,0.0225 ± 0.0031,871 ± 170,0.00107 ± 0.00018,0.00315 ± 0.00047,0.0102 ± 0.0015,0.0197 ± 0.005,0.0186 ± 0.0045
C8U C10A A15U G38A C50U,< 1e-05,,,,,,
C50U U57A G59C U65A C70U,2.56e-05 ± 4.5e-06,293 ± 140,< 1e-05,,,,< 1e-05
U31G G66U U69G,4.42e-05 ± 1.3e-05,,,6.31e-05 ± 2.1e-05,,6.07e-05 ± 1.6e-05,
A14G A36U,1.56e-05 ± 2.2e-07,,< 1e-05,< 1e-05,,,
U30C G40U,4.56e-05 ± 6.3e-06,,,,,5.33e-05 ± 1.1e-05,4.17e-05 ± 6.9e-06
A52U G66U,4.61e-05 ± 3.4e-06,,< 1e-05,,,3.74e-05 ± 1.8e-05,4.26e-05 ± 1.2e-05
A12U C58G,0.0011 ± 0.00023,6470 ± 2000,,2.07e-05 ± 6e-06,0.000109 ± 1.2e-05,0.000287 ± 3e-05,0.000677 ± 6.4e-05
A15G C67A,0.00627 ± 0.0024,,0.000534 ± 0.00011,0.000961 ± 0.00011,0.00406 ± 0.0007,0.00376 ± 0.00071,0.00896 ± 0.0018
C34G C61G,< 1e-05,,< 1e-05,,< 1e-05,,
G41C U47C,3.99e-05 ± 4.8e-06,,,,,,3.66e-05 ± 1.1e-05
A39G C67A,0.00703 ± 0.003,,0.000425 ± 7.2e-05,,0.00288 ± 0.00088,,0.00689 ± 0.0015
C58G G66A,5.59e-05 ± 5.7e-06,,,,,5.32e-05 ± 1.5e-05,5.1e-05 ± 7.9e-06
G29A U31C,0.000716 ± 0.00016,2070 ± 780,,7.58e-05 ± 2e-05,0.000161 ± 3e-05,0.000333 ± 7.1e-05,0.000668 ± 0.00012
